In FireProtDB (doi:10.1021/bi00066a003):
Values joined by “and” are separate entries in the source; they are usually repeats but may differ in a detail not shown here. Equal values may be shown once.

B1: Phosphoglycerate kinase, P18912 (parent)
chain: MNKKTIRDVDVRGKRVFCRVDFNVPMEQGAITDDTRIRAALPTIRYLIEHGAKVILASHLGRPKGKVVEELRLDAVAKRLGELLERPVAKTNEAVGDEVKAAVDRLNEGDVLLLENVRFYPGEEKNDPELAKAFAELADLYVNDAFGAAHRAHASTEGIAHYLPAVAGFLMEKELEVLGKALSNPDRPFTAIIGGAKVKDKIGVIDNLLEKVDNLIIGGGLAYTFVKALGHDVGKSLLEEDKIELAKSFMEKAKEKGVRFYMPVDVVVADRFANDANTKVVPIDAIPADWSALDIGPKTRELYRDVIRESKLVVWNGPMGVFEMDAFAHGTKAIAEALAEALDTYSVIGGGDSAAAVEKFGLADKMDHISTGGGASLEFMEGKQLPGVVALEDK

Variants of: B1
Settings: Geobacillus stearothermophilus, pH 7.5, 25 °C, Fluorescence, TEA 50 mM, reversible: yes, structure 1PHP, whole UniProt chain shown

Variant	unfolding free energy (GdnHCl, transition: 3)	unfolding free energy (Urea, transition: 3) [kcal/mol]	unfolding free energy (GdnHCl, transition: 4)	unfolding free energy (Urea, transition: 4)
MNKKTIRDVDVRGKRVFCRVDFNVPMEQGAITDDTRIRAALPTIRYLIEHGAKVILASHLGRPKGKVVEELRLDAVAKRLGELLERPVAKTNEAVGDEVKAAVDRLNEGDVLLLENVRFYPGEEKNDPELAKAFAELADLYVNDAFGAAHRAHASTEGIAHYLPAVAGFLMEKELEVLGKALSNPDRPFTAIIGGAKVKDKIGVIDNLLEKVDNLIIGGGLAYTFVKALGHDVGKSLLEEDKIELAKSFMEKAKEKGVRFYMPVDVVVADRFANDANTKVVPIDAIPADYSALDIGPKTRELYRDVIRESKLVVWNGPMGVFEMDAFAHGTKAIAEALAEALDTYSVIGGGDSAAAVEKFGLADKMDHISTGGGASLEFMEGKQLPGVVALEDK [W290Y]	11.4 kcal/mol and 8.2 kcal/mol	8.15	–	–
MNKKTIRDVDVRGKRVFCRVDFNVPMEQGAITDDTRIRAALPTIRYLIEHGAKVILASHLGRPKGKVVEELRLDAVAKRLGELLERPVAKTNEAVGDEVKAAVDRLNEGDVLLLENVRFYPGEEKNDPELAKAFAELADLYVNDAFGAAHRAHASTEGIAHYLPAVAGFLMEKELEVLGKALSNPDRPFTAIIGGAKVKDKIGVIDNLLEKVDNLIIGGGLAYTFVKALGHDVGKSLLEEDKIELAKSFMEKAKEKGVRFYMPVDVVVADRFANDANTKVVPIDAIPADYSALDIGPKTRELYRDVIRESKLVVYNGPMGVFEMDAFAHGTKAIAEALAEALDTYSVIGGGDSAAAVEKFGLADKMDHISTGGGASLEWMEGKQLPGVVALEDK [W290Y W315Y F379W]	–	–	4.95 kcal/mol and 10.8 kcal/mol and 8.93 kcal/mol	3.77 kcal/mol and 10.8 kcal/mol and 8.15 kcal/mol
